Test results reported in patent publication US20070053837A1, “Radiopharmaceuticals for cancer diagnosis and treatment” (priority 2003, published 2007).
Square brackets hold non-standard residues; d marks the D form. Peptide text beside a SMILES is read from it. * marks the point of attachment. DOTA = O=C(O)CN1CCN(CC(=O)O)CCN(CC(=O)*)CCN(CC(=O)O)CC1; Met(O2) = CS(=O)(=O)CC[C@H](N)C(=O)O; 2Thi = N[C@@H](Cc1cccs1)C(=O)O; Sar = CNCC(=O)O

Legend:
gliomas / glioblastoma = system: gliomas / glioblastoma; parameters: species or system patients; conditions: in vivo
From the text: As a third group which can serve as a control, 5 advanced cases that had been treated by the so called standard regimens with virtually no therapeutic option left anymore were included. […] In cases with biopsy alone, average survival is around 9 weeks without further treatment. In the 4 cases of this pilot study, all patients survived at least 2 months and up to 9 months, and In a special case even show a remarkable partial response. In the resected 5 cases followed by Internal radionuclide conjugate brachytherapy, overall survival appeared to be longer than expected which is in the range between 14 and 26 months. According to the only large randomized trial of 1970s which serves as historical control, resection alone would have led to an expected survival of about 4 months, and resection plus an external beam radiotherapy to a mean survival of about 9.5 months. […] This interpretation of the data is further supported by an impressive partial response (case W. […] A key question in local glioma therapy is whether one can achieve to reach infiltrating tumor cell nests or satellite lesion. […] The presently used dissipative Y-90 (range 3-6 mm) is more suitable for bulky lesions.

[1] = assay type: in vitro ADME, patients
Protocol: Further stability test by in vitro experiments incubating ^90Y-DOTAGA-Substance P in different CSF (cerebrospinal fluid) aspirates from patients are executed.

NK1 receptors = biological target: T1, NK1 receptors (Homo sapiens, UniProt P25103); assay: Binding affinity to NK-1 receptors, in vitro autoradiography, displacement of ^125I-Bolton-Hunter-SP; conditions: tumor tissue expressing NK1 receptors; radioligand ^125I-Bolton-Hunter-SP; concentrations 0.1 nM to 1'000 nM; read-out: IC50 ± SEM (mean value)
T1 construct: In vitro autoradiography is performed with tumor tissue expressing NK1 receptors; from tissue
T1 sequence (P25103 whole entry): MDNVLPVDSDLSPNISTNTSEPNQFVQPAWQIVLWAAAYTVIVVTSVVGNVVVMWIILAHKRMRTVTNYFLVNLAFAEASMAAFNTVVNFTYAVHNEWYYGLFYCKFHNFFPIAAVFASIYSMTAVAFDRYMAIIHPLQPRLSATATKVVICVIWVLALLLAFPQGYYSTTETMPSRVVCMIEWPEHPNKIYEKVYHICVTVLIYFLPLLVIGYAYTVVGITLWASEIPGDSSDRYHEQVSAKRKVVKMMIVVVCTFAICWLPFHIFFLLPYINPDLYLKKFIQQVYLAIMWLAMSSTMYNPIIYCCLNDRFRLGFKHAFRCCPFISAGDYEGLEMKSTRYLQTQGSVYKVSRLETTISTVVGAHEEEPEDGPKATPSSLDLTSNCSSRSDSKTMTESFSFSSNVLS
Protocol: Example C4 Binding Affinity to NK-1 Receptors In vitro autoradiography is performed with tumor tissue expressing NK1 receptors. The used radioligand is ^125I-Bolton-Hunter-SP. Displacement experiments are performed on successive sections with the various compounds listed in the Table given in concentrations ranging from 0.1 nM to 1'000 nM.

IC50 (NK1 receptors) [nM] | SMILES | further results
0.78 ± 0.03 | CC(C)C[C@H](NC(=O)CNC(=O)[C@H](Cc1cccs1)NC(=O)[C@H](Cc1ccccc1)NC(=O)[C@H](CCC(N)=O)NC(=O)[C@H](CCC(N)=O)NC(=O)[C@@H]1CCCN1C(=O)[C@H](CCCCN)NC(=O)[C@@H]1CCCN1C(=O)[C@H](CCCNC(=N)N)NC(=O)CN1CCN(CC(=O)O)CCN(CC(=O)O)CCN(CC(=O)O)CC1)C(=O)N[C@@H](CCS(C)(=O)=O)C(N)=O [^111In-DOTA-Arg^1-Pro^2-Lys^3-Pro^4-Gln^5-Gln^6Phe^7-Thi^8-Gly^9-Leu^10-Met(O2)^11—NH2, metal not drawn] ({DOTA}-RPKPQQF[2Thi]GL[Met(O2)]-NH2) | 
7.7 ± 0.7 | CSCC[C@H](NC(=O)[C@H](CC(C)C)NC(=O)CNC(=O)[C@H](Cc1cccs1)NC(=O)[C@H](Cc1cccs1)NC(=O)[C@H](CCC(N)=O)NC(=O)[C@H](CCC(N)=O)NC(=O)[C@@H]1CCCN1C(=O)[C@H](CCCCN)NC(=O)[C@@H]1CCCN1C(=O)[C@H](CCCNC(=N)N)NC(=O)CN1CCN(CC(=O)O)CCN(CC(=O)O)CCN(CC(=O)O)CC1)C(N)=O [^111In-DOTA-[Thi^7, Thi^8]-Substance P, ^111In-DOTA-Arg^1-Pro^2-Lys^3-Pro^4-Gln^5-Gln^6-Thi^7-Thi^8-Gly^9-Leu^10-Met^11-NH2, metal not drawn] ({DOTA}-RPKPQQ[2Thi][2Thi]GLM-NH2) | 
3.4 ± 0.4 | CSCC[C@H](NC(=O)[C@H](CC(C)C)NC(=O)CN(C)C(=O)[C@H](Cc1cccs1)NC(=O)[C@H](Cc1ccccc1)NC(=O)[C@H](CCC(N)=O)NC(=O)[C@H](CCC(N)=O)NC(=O)[C@@H]1CCCN1C(=O)[C@H](CCCCN)NC(=O)[C@@H]1CCCN1C(=O)[C@H](CCCNC(=N)N)NC(=O)CN1CCN(CC(=O)O)CCN(CC(=O)O)CCN(CC(=O)O)CC1)C(N)=O [^111In-DOTA-[Thi^8, Sar^9]-Substance P, ^111In-DOTA-Arg^1-Pro^2-Lys^3-Pro^4-Gln^5-Gln^6-Phe^7-Thi^8-Sar^9-Leu^10-Met^11-NH2, metal not drawn] ({DOTA}-RPKPQQF[2Thi][Sar]LM-NH2) | 

The next lines start with the compound.

SMILES | IC50 (NK1 receptors) [nM] | further results
CSCC[C@H](NC(=O)[C@H](CC(C)C)NC(=O)CNC(=O)[C@H](Cc1ccccc1)NC(=O)[C@H](Cc1ccccc1)NC(=O)[C@H](CCC(N)=O)NC(=O)[C@H](CCC(N)=O)NC(=O)[C@@H]1CCCN1C(=O)[C@H](CCCCN)NC(=O)[C@@H]1CCCN1C(=O)[C@H](CCCNC(=N)N)NC(=O)CCC(C(=O)O)N1CCN(CC(=O)O)CCN(CC(=O)O)CCN(CC(=O)O)CC1)C(N)=O (single isomer, unassigned) [^111In-DOTAGA-Substance P, ^111In-DOTAGA-Arg^1-Pro^2-Lys^3-Pro^4-Gln^5-Gln^6-Phe^7-Phe^8-Gly^9-Leu^10-Met^11-NH2, metal not drawn] |  | diffusibility: distance of satellite lesion that becomes visible (gliomas / glioblastoma): 4 cm
CSCC[C@H](NC(=O)[C@H](CC(C)C)NC(=O)CNC(=O)[C@H](Cc1ccccc1)NC(=O)[C@H](Cc1ccccc1)NC(=O)[C@H](CCC(N)=O)NC(=O)[C@H](CCC(N)=O)NC(=O)[C@@H]1CCCN1C(=O)[C@H](CCCCN)NC(=O)[C@@H]1CCCN1C(=O)[C@H](CCCNC(=N)N)NC(=O)CCC(C(=O)O)N1CCN(CC(=O)O)CCN(CC(=O)O)CCN(CC(=O)O)CC1)C(N)=O (stereo partly drawn) [^90Y-DOTAGA-Substance P, ^90Y-DOTAGA-Arg^1-Pro^2-Lys^3-Pro^4-Gln^5-Gln^6-Phe^7-Phe^8-Gly^9-Leu^10-Met^11-NH2, metal not drawn] |  | stability in CSF aspirate [1]: stable for several hours; time to complete degradation in CSF aspirate [1]: ≤ 5 h
